Among the data in paper PMC3000793 are FRET signal (donor dequenching) values, retold here.

The target in the assay is ASIC3-YFP (UniProt O35240). Kind of assay: FRET or BRET.
UniProt O35240, sequence (O35240 whole entry): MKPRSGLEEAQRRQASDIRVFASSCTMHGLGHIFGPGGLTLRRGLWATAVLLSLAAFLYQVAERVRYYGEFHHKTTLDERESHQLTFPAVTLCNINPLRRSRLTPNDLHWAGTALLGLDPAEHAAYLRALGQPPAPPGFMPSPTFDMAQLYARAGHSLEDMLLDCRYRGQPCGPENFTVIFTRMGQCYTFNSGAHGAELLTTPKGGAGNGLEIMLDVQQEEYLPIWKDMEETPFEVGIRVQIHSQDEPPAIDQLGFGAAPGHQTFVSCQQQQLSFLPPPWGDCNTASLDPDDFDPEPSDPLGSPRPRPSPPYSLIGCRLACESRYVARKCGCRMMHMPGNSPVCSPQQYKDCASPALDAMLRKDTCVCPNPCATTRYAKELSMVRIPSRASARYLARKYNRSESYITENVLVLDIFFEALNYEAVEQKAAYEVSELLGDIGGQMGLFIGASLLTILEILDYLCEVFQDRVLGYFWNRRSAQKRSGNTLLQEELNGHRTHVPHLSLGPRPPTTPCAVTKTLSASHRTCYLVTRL

As to “P2X5-CFP (from UniProt P51578 1-455) (receptor)”, the FRET signal (donor dequenching) came to 20%.
